We go through two substances from paper PMC8257933.

For test [1], the target named is NTCP-V5-His G233LXXXG237L (TMD7) mutant. Nature of the test: co-IP (IP anti-FLAG agarose, western blot anti-V5, ImageJ band quantification). To be noted: HEK293 cells co-transfected with NTCP-FLAG and NTCP-V5-His; n = 3 independent experiments; parent: est. 100; read off a plot.
Test [2] deals with NTCP-V5-His G60LXXXA64L/G233LXXXG237L (TMD2/7) double mutant. The description is as above. To be noted: HEK293 cells co-transfected with NTCP-FLAG and NTCP-V5-His; n = 3 independent experiments; parent: est. 100; read off a plot.

As to “NTCP wild type, NTCP-FLAG and NTCP-V5-His expressed in HEK293 cells (from UniProt Q14973) binder (NTCP-FLAG): G60L; A64L; target (NTCP-V5): G233L; G237L”, in test [1], the percent of parent was 120 % of control.

Turning to “NTCP wild type, NTCP-FLAG and NTCP-V5-His expressed in HEK293 cells (from UniProt Q14973) binder (NTCP-FLAG): G60L; A64L; G233L; G237L; target (NTCP-V5): G60L; A64L; G233L; G237L”, the percent of parent in test [2] is 130 % of control.
